Measurements: patent publication US20180282403A1, “AGENTS FOR REDUCING THE ACTIVITY OF GDF15” (GENAGON THERAPEUTICS AB, priority 2015, published 2018)
Residues, ends and D or L forms follow the SMILES beside them. No end group written: not given here. *: point of attachment. Cbz = O=C(OCc1ccccc1)*

What was measured:
GDF15 [1] = molecular target: T1, GDF15 (Homo sapiens, UniProt Q99988); assay: Biotin pull-down of GDF15 using biotinylated peptides derived from QRFPR and CLPTM1; assay type: binding; conditions: N-terminal biotin peptides on Streptavidin-agarose beads, extensive washes; FIG. 8A
T1 construct: purchased Abcam
T1 sequence (Q99988 197-308 limits assumed): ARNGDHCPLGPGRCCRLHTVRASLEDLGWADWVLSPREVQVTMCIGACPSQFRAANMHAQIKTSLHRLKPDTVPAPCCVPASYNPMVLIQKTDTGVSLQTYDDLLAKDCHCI
Protocol: In order to further characterise the peptides which interact with GDF15, a series of GST-fusion proteins and biotinylated peptides was prepared. GDF15 was obtained from Biovision and/or Abcam.
A series of peptides from the QRFPR and the CLPTM1 proteins was designed. In order to use the peptides both for immunoprecipitation experiments and cell culture based assays added an N-terminal biotin was added to each peptide, and the counter-ion changed to chloride.
A series of biotinylated peptides was used (FIG. 8A). […] Combinations of the peptides were also used. Peptides were mixed in a 1:1 ratio, with same total amounts as in lanes 1-5, resulting in 50% of each peptide as compared to lanes 1-5. Lane 6: EC domain 3 & EC domain 4 from QRFPR; Lane 7: EC domain 4 from QRFPR & peptide from EC domain of CLPTM1; Lane 8: EC domain 3 from QRFPR & peptide from EC domain of CLPTM1; Lane 9: Mw markers; Lane 10: GDF15 (positive control).

QRFPR = molecular target: T2, QRFPR (Homo sapiens, UniProt Q96P65); assay: QRFPR levels after prolonged GDF15 stimulation with or without proteasome inhibition; assay type: cell-based; conditions: MG132 10 μM + GDF15 overnight vs equal GDF15 without MG132; FIG. 6
T2 construct: endogenous in cells
T2 sequence (Q96P65 1-431): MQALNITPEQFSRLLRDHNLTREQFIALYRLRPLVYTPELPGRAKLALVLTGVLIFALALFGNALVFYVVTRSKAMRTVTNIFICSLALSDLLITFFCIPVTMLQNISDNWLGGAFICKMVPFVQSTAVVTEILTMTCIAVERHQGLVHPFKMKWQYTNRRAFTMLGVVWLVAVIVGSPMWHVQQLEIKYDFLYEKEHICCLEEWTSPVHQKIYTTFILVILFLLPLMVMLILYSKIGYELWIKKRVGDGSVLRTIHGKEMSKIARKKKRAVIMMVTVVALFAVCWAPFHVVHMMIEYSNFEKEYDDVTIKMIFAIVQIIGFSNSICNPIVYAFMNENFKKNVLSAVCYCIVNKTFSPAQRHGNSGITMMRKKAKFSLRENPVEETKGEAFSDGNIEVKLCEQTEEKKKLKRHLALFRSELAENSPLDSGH
Protocol: This effect is not seen in cells which are treated with MG132 (FIG. 6D).

CD14+ cells = assay: Cytokine secretion by LPS-stimulated CD14+ cells (Proseek assay); assay type: cell-based
Protocol: CD14+ cells where isolated and cultured in the presence or absence of GDF15 in a LPS stimulated culture.
Buffy coat cell suspension or heparinized blood samples were diluted with sterile, room temperature PBS. Peripheral blood samples are diluted 1:1, whereas buffy coats are diluted to a final volume of 120 ml (in a standard buffy coat this will result in slightly greater dilution than 1:1). The diluted cell suspension was layered onto Ficoll Paque PLUS. For one buffy 4×15 ml aliquots are used (30 ml of diluted cell suspension/tube). Cells were centrifuged at 400×g for 30 min at room temperature and transferred to a new 50 ml tube. Cells were washed once and resuspended in 20 ml PBS.
Mononuclear cell suspension was pelleted by centrifugation. Cells were resuspended in Stemcell buffer at a concentration of 10^8 cells/ml and transferred to a round bottom 14 ml tube. EasySep Positive Selection cocktail at was added at 100 μl/ml cells, mixed by gentle pipetting, and incubated at room temperature for 15 min. 50 μl EasySep Magnetic Nanoparticles per 1 ml cells were added and mixed, and incubated at room temperature for 10 min. Stemcell recommended medium was added to bring the cell suspension to a total volume of 5 ml and mixed by gently pipetting. The tube (without cap) was placed into the magnet and set aside for 5 min. After 5 minutes the supernatant was discarded. CD14+ labelled cells will remain inside the tube. The tube was removed from the magnet and add 5 ml Stemcell recommended medium was added and mixed by gently pipetting. The tube (without cap) was placed into the magnet and set aside for 5 min. The was step was repeated before the cells were resuspended in 5 ml complete RPMI medium. 50 μl of the CD14+ cell suspension was removed and counted to determine total cell number after dilution in Trypan blue solution and mounting on Fast Read 102 Counting Slides.
Adjust CD14+ cell suspension volume to a concentration of 0.833×10^6 cells/ml in complete RPMI medium. 300 μl of cell suspension is added to wells in a 48 well plate well (0.25×10^6 cells per well), and allowed to adhere for 90 min in an incubator at 37° C. Non-adherent cells were removed by removal of the supernatant after gently pipetting the medium. Cells were washed once with 300 μl pre-warmed complete RPMI medium and the medium aspirated off. 300 μl pre-warmed complete RPMI medium was added to each well and the cells were incubate overnight (20-24 h) in a cell incubator at 37° C.
A 17× stock solution of the desired GDF15 modulatory substances was diluted in complete RPMI. (20 μl of substance/well assayed). 20 μl of modulatory substance or medium/carrier (negative control) was added to each well and mixed by gentle pipetting. Cells were incubated for 30 min in a cell incubator at 37° C. A 17×GDF15 solution was prepared by diluting a 100 μg/ml stock solution to a concentration of 8.5 μg/ml (final concentration in culture 0.5 μg/ml) in complete RPMI. 20 μl of diluted GDF15 was added per well, and incubated overnight (18-20 h) in a cell incubator at 37° C.
A 18×LPS solution was prepared by diluting the LPS stock solution to a concentration of 18 ng/ml (final concentration in culture 1 ng/ml) in complete RPMI. 20 μl of LPS or medium (negative control) was added to each well and mixed by gentle pipetting. […]
Secreted proteins from cell cultures where quantified using multiplexed proximity extension assay, Proseek (Assarsson E et al PlosOne 2014) by Olink Proteomics AB (Uppsala Sweden). […]

GDF15 [2] = molecular target: T1, GDF15; assay: Pull down of GDF15 by Fc fusion proteins with stringent washes; assay type: binding; conditions: 20 μg Fc fusion protein, 0.5 μg GDF15, protein-G bead, FIG. 27
Protocol: (§1) 20 μg Fc fusion protein constructs were incubated with 0.5 μg GDF15 and protein-G bead with mixing for 6 hrs in +4 C in PBST+1% BSAs. Wash 6 times: 3 times PBST, change tubes, 2 washes PBST+220 mM NaCl. Last wash PBS. The beads were collected using a table-top centrifuge set at 500 g for 5 minutes between washes. Detection The material was loaded on a 4-12% gradient gel, run at 100 volt, transferred to PVDF membrane using a Turbo Tank blot system, blocked by PBS with 3% BSA 1 hr RT, and incubated with RD systems a monoclonal anti-GDF15 antibody overnight. A secondary antibody: mouse HRP 1:2000 was used for detection. The size of band was estimated by comparing with a seeblue2 protein ladder marker run in an adjacent lane.
The fragments from the receptors were selected based on previous results including array data indicating direct interaction with GDF15. In the array, the interaction is between a peptide monomer and the ligand.

[3] = molecular target: T3, Growth and differentiation factor 15 (GDF15) (UniProt Q99988 197-308, limits assumed); assay: Fc-fusion pull-down on protein-G beads, Western blot
T3 construct: Purchased GDF15 added to cells, pull-downs, peptide arrays and ELISA; also called MIC1
T3 sequence (looked up): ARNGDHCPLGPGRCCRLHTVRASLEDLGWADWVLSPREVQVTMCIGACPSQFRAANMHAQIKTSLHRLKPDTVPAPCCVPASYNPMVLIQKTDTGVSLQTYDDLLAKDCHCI
Protocol: as §1

[4] = molecular target: T4, Cleft Lip and Palate Transmembrane protein 1 (CLPTM1) (human, UniProt O96005 2-669); assay: in situ PLA on NK-92 cells
T4 construct: Endogenous receptor of NK-92 cells, CD14+ cells and human tissues
T4 sequence: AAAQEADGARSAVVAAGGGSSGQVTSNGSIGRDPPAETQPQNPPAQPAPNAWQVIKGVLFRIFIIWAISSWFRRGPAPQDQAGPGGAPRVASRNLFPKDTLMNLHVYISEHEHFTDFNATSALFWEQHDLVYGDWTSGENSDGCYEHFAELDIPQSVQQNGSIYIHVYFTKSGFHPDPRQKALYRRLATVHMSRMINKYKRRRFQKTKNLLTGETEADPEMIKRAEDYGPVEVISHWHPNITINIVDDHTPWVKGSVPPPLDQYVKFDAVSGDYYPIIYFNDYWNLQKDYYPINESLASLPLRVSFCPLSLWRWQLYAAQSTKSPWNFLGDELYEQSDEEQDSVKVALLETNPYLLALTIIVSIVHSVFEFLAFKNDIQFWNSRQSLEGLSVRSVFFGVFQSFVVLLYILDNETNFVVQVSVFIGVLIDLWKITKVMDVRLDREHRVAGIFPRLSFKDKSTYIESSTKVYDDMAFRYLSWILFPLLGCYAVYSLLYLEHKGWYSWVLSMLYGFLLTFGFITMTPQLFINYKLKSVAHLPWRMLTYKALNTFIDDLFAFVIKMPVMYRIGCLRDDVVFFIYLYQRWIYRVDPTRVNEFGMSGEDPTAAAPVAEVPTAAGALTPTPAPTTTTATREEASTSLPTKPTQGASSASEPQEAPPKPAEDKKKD

[5] = LPS stimulated CD14+ cells with GDF15 + agent

GALFWEQHDLVYGDWTS (listed as Homo sapiens) [SEQ ID NO:19]
GDF15 precipitated by biotinylated peptide (pull-down) (GDF15 [1]): more successful than the others in precipitating GDF15

CC(C)C[C@@H](C=O)NC(=O)[C@H](CC(C)C)NC(=O)[C@H](CC(C)C)NC(=O)OCc1ccccc1 [MG132, reference compound] (Cbz-Leu-Leu-Leu-aldehyde)
levels of QRFPR (QRFPR): levels of QRFPR were increased

Fc mouse IgG1-GGGGSGGGGSGGGGSYISEHEHFTDFNATSALFWEQHDLVYGDWTS ({Fc mouse IgG1}-GGGGSGGGGSGGGGSYISEHEHFTDFNATSALFWEQHDLVYGDWTS) [AP2, Fc fusion protein with CLPTM1 peptide]
secretion of IFNγ (CD14+ cells; LPS stimulated CD14+ cells + agent, FIG. 30): demonstrated secretion of the pro-inflammatory protein IFNγ | secretion of IL12 (CD14+ cells; [5]): increase in secretion of both cytokines | secretion of TNF (CD14+ cells; [5]): increase in secretion of both cytokines | pull down of GDF15 by Fc fusion protein (GDF15 [2]): capable of pulling down GDF15

GEIKYDFLYEKEHICCLEEWTS (listed as Homo sapiens) [SEQ ID NO:10]
GDF15 precipitated by biotinylated peptide (pull-down) (GDF15 [1]): more successful than the others in precipitating GDF15

B1: AP2 (CLPTM1 peptide): Fc mouse IgG1-GGGGSGGGGSGGGGSYISEHEHFTDFNATSALFWEQHDLVYGDWTS (Fc fusion, not shown: a dimerising Fc or GST)
chain: {Fc mouse IgG1}-GGGGSGGGGSGGGGSYISEHEHFTDFNATSALFWEQHDLVYGDWTS
modifications: also: Fc fusion dimer
notes: also called AP2 construct; Fc fusion protein comprising a CLPTM1 polypeptide
binding result [3]: binds

B2: AP5 (QRFPR peptide): Fc mouse IgG1-GGGGSGGGGSGGGGSQRLEIKYDFLYEKEH (Fc fusion, not shown: a dimerising Fc or GST)
chain: {Fc mouse IgG1}-GGGGSGGGGSGGGGSQRLEIKYDFLYEKEH
modifications: also: Fc fusion dimer
notes: if the entry holds the Fc too, the first part is redundant; also called AP5 construct; Fc fusion protein comprising a QRFPR polypeptide
binding result [3]: binds

B3: TGFBRI (ALK5) (receptor, UniProt P36897 34-503, looked up)
chain: LQCFCHLCTKDNFTCVTDGLCFVSVTETTDKVIHNSMCIAEIDLIPRDRPFVCAPSSKTGSVTTTYCCNQDHCNKIELPTTVKSSPGLGPVELAAVIAGPVCFVCISLMLMVYICHNRTVIHHRVPNEEDPSLDRPFISEGTTLKDLIYDMTTSGSGSGLPLLVQRTIARTIVLQESIGKGRFGEVWRGKWRGEEVAVKIFSSREERSWFREAEIYQTVMLRHENILGFIAADNKDNGTWTQLWLVSDYHEHGSLFDYLNRYTVTVEGMIKLALSTASGLAHLHMEIVGTQGKPAIAHRDLKSKNILVKKNGTCCIADLGLAVRHDSATDTIDIAPNHRVGTKRYMAPEVLDDSINMKHFESFKRADIYAMGLVFWEIARRCSIGGIHEDYQLPYYDLVPSDPSVEEMRKVVCEQKLRPNIPNRWQSCEALRVMAKIMRECWYANGAARLTALRIKKTLSQLSQQEGIKM
notes: whole, on cells; also called TGFBR1
binding result [4]: binds

B4: TGFBRII (receptor, UniProt P37173 23-567, looked up)
chain: TIPPHVQKSVNNDMIVTDNNGAVKFPQLCKFCDVRFSTCDNQKSCMSNCSITSICEKPQEVCVAVWRKNDENITLETVCHDPKLPYHDFILEDAASPKCIMKEKKKPGETFFMCSCSSDECNDNIIFSEEYNTSNPDLLLVIFQVTGISLLPPLGVAISVIIIFYCYRVNRQQKLSSTWETGKTRKLMEFSEHCAIILEDDRSDISSTCANNINHNTELLPIELDTLVGKGRFAEVYKAKLKQNTSEQFETVAVKIFPYEEYASWKTEKDIFSDINLKHENILQFLTAEERKTELGKQYWLITAFHAKGNLQEYLTRHVISWEDLRKLGSSLARGIAHLHSDHTPCGRPKMPIVHRDLKSSNILVKNDLTCCLCDFGLSLRLDPTLSVDDLANSGQVGTARYMAPEVLESRMNLENVESFKQTDVYSMALVLWEMTSRCNAVGEVKDYEPPFGSKVREHPCVESMKDNVLRDRGRPEIPSFWLNHQGIQMVCETLTECWDHDPEARLTAQCVAERFSELEHLDRLSGRSCSEEKIPEDGSLNTTK
notes: whole, on cells
binding result [4]: binds
